This note sets out measurements from PMC8287583, “Biochemical and Phylogenetic Characterization of a Novel NADP^+-Specific Isocitrate Dehydrogenase From the Marine Microalga Phaeodactylum tricornutum” (Frontiers in Molecular Biosciences, 2021).

Data set [1] deals with PtIDH2 V609L mutant (Phaeodactylum tricornutum CCAP 1055/1). Description: SEC; mutant forms of PtIDH2, Superdex 200 (10/300), 0.5 ml/min; salt of the buffer not stated for this panel. (SEC sorts molecules by how far they enter the pores of the column.)
Data set [2] addresses PtIDH2 A718P mutant (Phaeodactylum tricornutum CCAP 1055/1). The data set is described as above.
Data set [3] concerns the target Phaeodactylum tricornutum NADP+-specific isocitrate dehydrogenase 2 (PtIDH2), mature form without the signal and transit peptide (Phaeodactylum tricornutum CCAP 1055/1). Description: SEC-MALS; Superdex 200 (10/300) Increase, 0.5 ml/min, 20 mM Tris-HCl, 10% glycerol, 300 mM NaCl, pH 7.5.
The target is the same in data set [4]. Nature of the data set: SEC; Superdex 200 (10/300) Increase, 0.5 ml/min, 20 mM Tris-HCl, 10% glycerol, pH 7.5, 300 mM NaCl (low salt); calibrated with five protein standards.
For data set [5] the target is unchanged. Description: SEC; Superdex 200 (10/300) Increase, 0.5 ml/min, 20 mM Tris-HCl, 10% glycerol, pH 7.5, 1,000 mM NaCl (high salt); sample incubated in that buffer before chromatography; tetramer to dimers.
For data set [6], the target named is PtIDH2 L742F mutant (Phaeodactylum tricornutum CCAP 1055/1). Nature of the data set: SEC; mutant forms of PtIDH2, Superdex 200 (10/300), 0.5 ml/min; salt of the buffer not stated for this panel.
Substrate in data set [7]: NC(=O)c1ccc[n+]([C@@H]2O[C@H](COP(=O)(O)OP(=O)(O)OC[C@H]3O[C@@H](n4cnc5c(N)ncnc54)[C@H](OP(=O)(O)O)[C@@H]3O)[C@@H](O)[C@H]2O)c1
Nature of the data set: purified protein. The class given is biochemical, Phaeodactylum tricornutum. As to conditions: 50 mM Tris-HCl pH 8.0, 25 °C.

Substrate in data set [8]: O=C(O)CC(C(=O)O)C(O)C(=O)O
Nature of the data set: purified protein. The conditions noted are these: Mn2+ 2.0 mM, 0.5 mM NADP+ fixed, 50 mM Tris-HCl pH 8.0, 25 °C, DL-isocitrate used. The class given is biochemical, Phaeodactylum tricornutum.

Substrate in data set [9]: NC(=O)c1ccc[n+]([C@@H]2O[C@H](COP(=O)(O)OP(=O)(O)OC[C@H]3O[C@@H](n4cnc5c(N)ncnc54)[C@H](O)[C@@H]3O)[C@@H](O)[C@H]2O)c1
Description: purified protein. The class given is biochemical, Phaeodactylum tricornutum. The conditions noted are these: DL-isocitrate, 50 mM Tris-HCl pH 8.0, 25 °C, metal not given (wild-type is the Mn2+ value).

Where [10] appears, read: Mn2+ 2.0 mM, 1.0 mM DL-isocitrate fixed.
The mark [11] stands for this setting: DL-isocitrate, metal not given (wild-type is the Mn2+ value).

Regarding PtIDH2 V609L mutant (enzyme), the stoichiometry N in data set [1] turned out to be 4.

As to PtIDH2 A718P mutant (enzyme), the stoichiometry N in data set [2] came to 4.

Consider “Phaeodactylum tricornutum NADP+-specific isocitrate dehydrogenase 2 (PtIDH2), mature form without the signal and transit peptide (enzyme)”, for which the figures for the stoichiometry N in data set [3], in data set [4] and in data set [5] were 4, 4 and 2, respectively.

With PtIDH2 L742F mutant (enzyme), in [6], the stoichiometry N amounted to 4.

B1: PtIDH2 (Phaeodactylum tricornutum CCAP 1055/1) (protein)
chain: PPTSNHRHQPLEHARGSILYTETDEAPALATFSLYPVISKFSALANVDIVPCDISVAGRVLAAFPECLKPSQRVPDNLSYLGKKALEADCAIVKLPNISAPLNQLLECVNELRHKGYDVPLYPHEPSNVEETDVKHRYDKLMGSAVNPVLREGNSDRRVAAPVKAYAQKNPHRMGLWSKASRTHVAHMETGDFYETEQSAVMALPTSVSIVLATKNEGEIVLKAETPLEEGEVVDASRMSVKSLRDFYEREMQDAKDSELMLSLHLKATMMKVSDPIMFGHAIRVFFQDAFDKHGEVLASIGANPNGGLGSVYETIKSKLPADQAATIQADFEACFEDRPWLAMVDSDKGITNLHAPNDIIIDASMPVVVRDSGKMWNKLGELEDVKCLIPDRCYATMYQEVLSYVKTKGQFDVATMGSVANVGLMAKKAEEYGSHDKTFEIPSDGRVVVKDNNTGEVYFEHVVNAGDVWRMCQTKDVAIRDWVRLAVERARATGDRTIFWLDKRRAHDASLIKKVNTYLKDHDTDGLDISIMRPVDAVRISMERATDGKNTISVTGNVLRDYLTDLFPILELGTSAKMLSIVPLLAGGGLYETGAGGSAPKHVQQFVKEGHLRWDSLGEYLALAVALEGLADTAGNPKAKILGDCLNKAVGRILTNRKSPSRVVNQIDNRATNFYVSLYWADFLQQEDPSYKAIFESLTENRGKIVEEFSQCQGTAVDLGGYYLFDPAKTKAAMNPSPTLNKILSSFGPDMN
notes: mature form without putative signal and transit peptide (residues 1-58 of 811 removed), 753 residues, codon-optimized, 6xHis tag from pET-28b (NdeI/XhoI), E. coli Rosetta (DE3); ~80 kDa subunit (theoretical ~82 kDa), ~320 kDa homotetramer; N-term of insert after Met: FRSSTVL (from primer); C-term SSFGPDMN (from primers)
As to B1, in data set [7] (setting [10]), the Km came out at 37.37 ± 4.02 µM, the catalytic constant (kcat) was 119 ± 11 s⁻¹ and the kcat/Km was 3.22e+06 M⁻¹ s⁻¹. Moreover, in data set [8], the Michaelis-Menten constant (Km) came out at 42.69 ± 8.2 µM.

B2: PtIDH2 (Phaeodactylum tricornutum CCAP 1055/1; H661L/R672D/R721S) (protein)
chain: PPTSNHRHQPLEHARGSILYTETDEAPALATFSLYPVISKFSALANVDIVPCDISVAGRVLAAFPECLKPSQRVPDNLSYLGKKALEADCAIVKLPNISAPLNQLLECVNELRHKGYDVPLYPHEPSNVEETDVKHRYDKLMGSAVNPVLREGNSDRRVAAPVKAYAQKNPHRMGLWSKASRTHVAHMETGDFYETEQSAVMALPTSVSIVLATKNEGEIVLKAETPLEEGEVVDASRMSVKSLRDFYEREMQDAKDSELMLSLHLKATMMKVSDPIMFGHAIRVFFQDAFDKHGEVLASIGANPNGGLGSVYETIKSKLPADQAATIQADFEACFEDRPWLAMVDSDKGITNLHAPNDIIIDASMPVVVRDSGKMWNKLGELEDVKCLIPDRCYATMYQEVLSYVKTKGQFDVATMGSVANVGLMAKKAEEYGSHDKTFEIPSDGRVVVKDNNTGEVYFEHVVNAGDVWRMCQTKDVAIRDWVRLAVERARATGDRTIFWLDKRRAHDASLIKKVNTYLKDHDTDGLDISIMRPVDAVRISMERATDGKNTISVTGNVLRDYLTDLFPILELGTSAKMLSIVPLLAGGGLYETGAGGSAPKLVQQFVKEGHLDWDSLGEYLALAVALEGLADTAGNPKAKILGDCLNKAVGRILTNRKSPSSVVNQIDNRATNFYVSLYWADFLQQEDPSYKAIFESLTENRGKIVEEFSQCQGTAVDLGGYYLFDPAKTKAAMNPSPTLNKILSSFGPDMN
notes: as for B1
As to B2, in data set [9], the Michaelis-Menten constant (Km) is listed as 5,825 ± 307 μM, the kcat came out at 7.67 ± 1.04 s⁻¹ and the catalytic efficiency (kcat/Km) was found to be 1300 M⁻¹ s⁻¹. Moreover, in [7] (setting [11]), the Michaelis-Menten constant (Km) is 2,704 ± 142.8 μM, the kcat was determined as 1.01 ± 0.07 s⁻¹ and the kcat/Km worked out at 400 M⁻¹ s⁻¹.

B3: PtIDH2 (Phaeodactylum tricornutum CCAP 1055/1; H661L/K660T/R672D/R721S) (protein)
chain: PPTSNHRHQPLEHARGSILYTETDEAPALATFSLYPVISKFSALANVDIVPCDISVAGRVLAAFPECLKPSQRVPDNLSYLGKKALEADCAIVKLPNISAPLNQLLECVNELRHKGYDVPLYPHEPSNVEETDVKHRYDKLMGSAVNPVLREGNSDRRVAAPVKAYAQKNPHRMGLWSKASRTHVAHMETGDFYETEQSAVMALPTSVSIVLATKNEGEIVLKAETPLEEGEVVDASRMSVKSLRDFYEREMQDAKDSELMLSLHLKATMMKVSDPIMFGHAIRVFFQDAFDKHGEVLASIGANPNGGLGSVYETIKSKLPADQAATIQADFEACFEDRPWLAMVDSDKGITNLHAPNDIIIDASMPVVVRDSGKMWNKLGELEDVKCLIPDRCYATMYQEVLSYVKTKGQFDVATMGSVANVGLMAKKAEEYGSHDKTFEIPSDGRVVVKDNNTGEVYFEHVVNAGDVWRMCQTKDVAIRDWVRLAVERARATGDRTIFWLDKRRAHDASLIKKVNTYLKDHDTDGLDISIMRPVDAVRISMERATDGKNTISVTGNVLRDYLTDLFPILELGTSAKMLSIVPLLAGGGLYETGAGGSAPTLVQQFVKEGHLDWDSLGEYLALAVALEGLADTAGNPKAKILGDCLNKAVGRILTNRKSPSSVVNQIDNRATNFYVSLYWADFLQQEDPSYKAIFESLTENRGKIVEEFSQCQGTAVDLGGYYLFDPAKTKAAMNPSPTLNKILSSFGPDMN
notes: as for B1
On to B3, for which, in data set [9], the Km is on record as 11,479 ± 299 μM, the kcat is 2.25 ± 0.18 s⁻¹ and the specificity constant (kcat/Km) amounted to 200 M⁻¹ s⁻¹.

B4: PtIDH2 (Phaeodactylum tricornutum CCAP 1055/1; H661L/R672D) (protein)
chain: PPTSNHRHQPLEHARGSILYTETDEAPALATFSLYPVISKFSALANVDIVPCDISVAGRVLAAFPECLKPSQRVPDNLSYLGKKALEADCAIVKLPNISAPLNQLLECVNELRHKGYDVPLYPHEPSNVEETDVKHRYDKLMGSAVNPVLREGNSDRRVAAPVKAYAQKNPHRMGLWSKASRTHVAHMETGDFYETEQSAVMALPTSVSIVLATKNEGEIVLKAETPLEEGEVVDASRMSVKSLRDFYEREMQDAKDSELMLSLHLKATMMKVSDPIMFGHAIRVFFQDAFDKHGEVLASIGANPNGGLGSVYETIKSKLPADQAATIQADFEACFEDRPWLAMVDSDKGITNLHAPNDIIIDASMPVVVRDSGKMWNKLGELEDVKCLIPDRCYATMYQEVLSYVKTKGQFDVATMGSVANVGLMAKKAEEYGSHDKTFEIPSDGRVVVKDNNTGEVYFEHVVNAGDVWRMCQTKDVAIRDWVRLAVERARATGDRTIFWLDKRRAHDASLIKKVNTYLKDHDTDGLDISIMRPVDAVRISMERATDGKNTISVTGNVLRDYLTDLFPILELGTSAKMLSIVPLLAGGGLYETGAGGSAPKLVQQFVKEGHLDWDSLGEYLALAVALEGLADTAGNPKAKILGDCLNKAVGRILTNRKSPSRVVNQIDNRATNFYVSLYWADFLQQEDPSYKAIFESLTENRGKIVEEFSQCQGTAVDLGGYYLFDPAKTKAAMNPSPTLNKILSSFGPDMN
notes: as for B1
Take B4: in data set [9], the Km was 10,271 ± 1,448 μM, the kcat amounted to 7.22 ± 0.6 s⁻¹ and the kcat/Km is 700 M⁻¹ s⁻¹. In data set [7] (setting [11]), the Km was 47,650 ± 8,344 μM, the catalytic constant (kcat) turned out to be 22.1 ± 5.5 s⁻¹ and the catalytic efficiency (kcat/Km) turned out to be 500 M⁻¹ s⁻¹.

By stoichiometry N is commonly meant a count of units in the complex or per binding partner. As a reminder, the Km is the concentration of substrate that gives half-maximal velocity. What is called kcat is the maximal rate divided by the concentration of active sites. One may read the kcat/Km as the turnover number divided by the Michaelis constant.
